Assay results published in US20190269784A1, “Selective Inhibitors of the Polo-Like Kinase 1 Polo-Box Domain” (UNIVERSITY OF SOUTH CAROLINA, priority 2018, published 2019).
Where “and” joins values, the source holds several entries; their conditions need not be identical. Identical values can stand only once. Like-named read-outs stand apart in the source and are kept apart here. Square brackets hold non-standard residues; d marks the D form. Ends that are not written are not given here. Peptide text beside a SMILES is read from it. * marks the point of attachment. Benzoyl(4-octyl) = CCCCCCCCc1ccc(C(=O)*)cc1; pT = C[C@@H](OP(=O)(O)O)[C@H](N)C(=O)O; X2 = O=C(c1ccc(OCc2ccc(F)cc2)cc1)*; Benzoyl(4-OH) = O=C(c1ccc(O)cc1)*

How the values were obtained:
[1] = biological target: polo-box domain (PBD) of polo-like kinase 1 (PLK1) (UniProt P53350); assay: from FP IC50s; PLK1 PBD against PLK3 PBD
polo-box domain (PBD) of polo-like kinase 1 (PLK1) (UniProt P53350), sequence (P53350 367-603 limits assumed): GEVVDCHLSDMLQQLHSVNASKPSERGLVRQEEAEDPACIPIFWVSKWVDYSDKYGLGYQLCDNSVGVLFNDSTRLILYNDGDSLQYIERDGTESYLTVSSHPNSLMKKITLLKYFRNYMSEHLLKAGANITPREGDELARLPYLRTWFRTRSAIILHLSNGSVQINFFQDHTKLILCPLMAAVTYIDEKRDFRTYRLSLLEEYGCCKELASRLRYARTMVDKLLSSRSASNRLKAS

[2] = biological target: polo-box domain (PBD) of polo-like kinase 1 (PLK1) (UniProt P53350); assay: fluorescence polarization competition, displacement of tracer peptide from PLK1 PBD
[3] = biological target: polo-box domain (PBD) of polo-like kinase 1 (PLK1) (UniProt P53350); assay: fluorescence polarization competition on PLK1 PBD
[4] = biological target: PLK1 PBD (Homo sapiens, UniProt P53350); assay: Fluorescence polarization competitive binding assay, PLK1 PBD; conditions: for Selectivity Index: (IC50 PLK3 PBD/IC50 PLK1 PBD)×5, PLK1 over PLK3
PLK1 PBD, sequence (P53350 367-603 limits assumed): as above
Experimental: (§1) According to the assay, binding of a fluorescent tracer peptide to a protein increased polarization of the emitted fluorescence. […] The ability of test molecules to bind to the PBD was quantitated by a reduction in mP values that occurred as the tracer was displaced from the PBD, and plotted to calculate as an IC50 value.
(§2) The affinities of the peptides for PLK1 and PLK3 were measured by plotting the loss of polarization against increasing concentration of competitor peptide through use of an optimized assay and selectivity determination.

[5] = biological target: T1, PLK3 PBD (Homo sapiens, UniProt Q9H4B4); assay: Fluorescence polarization competitive binding assay, PLK3 PBD; conditions: for PLK3 PBD binding, in words: FP assay
T1 construct: A similar assay format was developed for the PLK3 PBD
T1 sequence (Q9H4B4 335-646 limits assumed): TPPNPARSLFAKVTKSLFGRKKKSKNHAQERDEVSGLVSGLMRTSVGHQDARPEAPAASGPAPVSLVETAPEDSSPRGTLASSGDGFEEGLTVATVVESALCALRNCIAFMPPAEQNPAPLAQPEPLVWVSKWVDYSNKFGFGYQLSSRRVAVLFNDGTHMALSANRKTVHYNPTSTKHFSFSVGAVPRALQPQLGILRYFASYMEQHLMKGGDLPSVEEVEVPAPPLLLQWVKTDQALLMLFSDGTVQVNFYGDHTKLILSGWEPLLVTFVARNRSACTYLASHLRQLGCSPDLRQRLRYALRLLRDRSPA
Experimental: The binding of fluorescein-labelled tracer peptides used for both assays was determined to see if there was a difference in affinity for their respective PBD. A titration curve for each tracer/PLK PBD complex was generated to determine Kd values for each and therefore compare the relative binding affinities.
as §2

[6] = biological target: polo-box domain (PBD) of polo-like kinase 1 (PLK1) (UniProt P53350); assay: from FP IC50s, (IC50 PLK3 PBD/IC50 PLK1 PBD)x5; PLK1 PBD against PLK3 PBD
[7] = biological target: T2, polo-box domain (PBD) of polo-like kinase 1 (PLK1) (UniProt P53350 367-603, limits assumed); assay: fluorescence polarization competition, displacement of tracer peptide from PLK1 PBD
T2 construct: domain: polo-box domain (PBD); the background speaks of the four known human PLKs and the residue numbers (L491) fit human PLK1; also called PLK1 PBD; PBD of PLK1
T2 sequence (P53350 367-603 limits assumed): as the sequence (P53350 367-603 limits assumed) above
From the text: as §1, with “IC₅₀” for “IC50”

[8] = biological target: polo-like kinase 1 (PLK1), wild type, in cells (UniProt P53350 2-603, limits assumed); assay: cell-based or functional assay
polo-like kinase 1 (PLK1), wild type, in cells, sequence (P53350 2-603 limits assumed): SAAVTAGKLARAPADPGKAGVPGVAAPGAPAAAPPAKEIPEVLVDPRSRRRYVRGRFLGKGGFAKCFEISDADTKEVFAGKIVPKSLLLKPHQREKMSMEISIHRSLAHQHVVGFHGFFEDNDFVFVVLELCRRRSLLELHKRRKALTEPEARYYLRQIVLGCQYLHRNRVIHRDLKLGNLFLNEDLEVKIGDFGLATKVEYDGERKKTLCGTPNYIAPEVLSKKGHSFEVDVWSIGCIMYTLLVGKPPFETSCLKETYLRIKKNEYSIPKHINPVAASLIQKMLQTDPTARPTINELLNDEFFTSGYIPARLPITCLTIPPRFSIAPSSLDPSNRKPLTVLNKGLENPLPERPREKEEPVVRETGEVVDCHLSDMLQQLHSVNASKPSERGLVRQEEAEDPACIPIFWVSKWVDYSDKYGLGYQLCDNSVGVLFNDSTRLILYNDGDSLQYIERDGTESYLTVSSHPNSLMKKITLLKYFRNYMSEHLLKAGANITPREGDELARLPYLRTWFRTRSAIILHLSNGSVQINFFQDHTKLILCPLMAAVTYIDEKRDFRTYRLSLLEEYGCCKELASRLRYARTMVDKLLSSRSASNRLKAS

[9] = biological target: polo-box domain (PBD) of polo-like kinase 3 (PLK3) (UniProt Q9H4B4); assay: fluorescence polarization competition, displacement of tracer peptide from PLK3 PBD
[10] = PLK3 PBD FP IC50, competition with fluorescent tracer peptide
[11] = competition with fluorescent tracer peptide, read-out: PLK3 PBD FP IC50
[12] = competition with fluorescent tracer peptide, read-out: PLK1 PBD FP IC50

## 4-butyl benzamide FLIP, 4-butyl S[pT]PNGL (SEQ ID NO: 11) (peptide)
[1]
  Selectivity Index: > 1200
[2]
  IC50: 2.5 µM
[3]
  fold potency increase against Compound #9: 2 fold

## CC(C)C[C@H](NC(=O)CNC(=O)[C@H](CC(N)=O)NC(=O)[C@@H]1CCCN1C(=O)[C@@H](NC(=O)[C@H](CO)NC(=O)c1ccc(O)cc1)[C@@H](C)OP(=O)(O)O)C(=O)O [Compound 1] ({Benzoyl(4-OH)}-S[pT]PNGL-OH)
[4]; FP assay
  PLK1 PBD binding, in words: completely inactive

## CC(C)C[C@H](NC(=O)CNC(=O)[C@H](CC(N)=O)NC(=O)[C@@H]1CCCN1C(=O)[C@@H](NC(=O)[C@H](CO)NC(=O)c1ccc(OCc2ccc(F)cc2)cc1)[C@@H](C)OP(=O)(O)O)C(=O)O [Compound 5] (X2-S[pT]PNGL-OH; C-terminus assumed)
[4]
  IC50: 5 µM
  fold reduction of PLK1 PBD binding relative to parent compound: ~24 fold

## CCCCCCCCc1ccc(C(=O)N[C@@H](CO)C(=O)N[C@H](C(=O)N2CCC[C@H]2C(=O)N[C@@H](CC(N)=O)C(=O)NCC(=O)N[C@@H](CC(C)C)C(=O)O)[C@@H](C)OP(=O)(O)O)cc1 [Compound 13] ({Benzoyl(4-octyl)}-S[pT]PNGL-OH; C-terminus assumed)
[5]; [10]
  IC50: 149 ± 38.2 µM

## CCCCCCCCc1ccc(C(=O)N[C@@H](CO)C(=O)N[C@H](C(=O)N[C@@H](C)C(=O)O)[C@@H](C)OP(=O)(O)O)cc1 [Compound 14]
[5]; [11]
  IC50: 202 ± 51.3 µM
[4]
  fold reduction of PLK1 PBD binding relative to parent compound: ~40 fold
  Selectivity Index: 66

## CC(C)C[C@H](NC(=O)CNC(=O)[C@H](CC(N)=O)NC(=O)[C@@H]1CCCN1C(=O)[C@@H](NC(=O)[C@H](CO)NC(=O)[C@H](CS)NC(=O)[C@H](CC(C)C)NC(=O)[C@@H](N)CC(C)C)[C@@H](C)OP(=O)(O)O)C(=O)O [SEQ ID NO: 1, LLCS[pT]PNGL, reference compound] (H-LLCS[pT]PNGL-OH; N-terminus and C-terminus assumed)
[5]
  PLK3 PBD binding, in words: no PLK3 PBD binding apparent at the maximum concentration tested

## CC(C)C[C@H](NC(=O)CNC(=O)[C@H](CC(N)=O)NC(=O)[C@@H]1CCCN1C(=O)[C@@H](NC(=O)[C@H](CO)NC(=O)[C@H](CS)NC(=O)[C@H](CC(C)C)NC(=O)[C@@H](N)CC(C)C)[C@@H](C)O)C(=O)O [SEQ ID NO: 2, reference compound] (H-LLCSTPNGL-OH)
[4]
  IC50: > 600 µM

## CC(=O)N1CCC[C@H]1C(=O)N[C@@H](CC(C)C)C(=O)N[C@@H](Cc1c[nH]cn1)C(=O)N[C@@H](CO)C(=O)N[C@H](C(=O)N1CCC[C@H]1C(=O)N[C@@H](CC(N)=O)C(=O)NCC(=O)N[C@@H](CC(C)C)C(=O)O)[C@@H](C)OP(=O)(O)O [SEQ ID NO: 3, Ac-PLHS[pT]PNGL] (Ac-PLHS[pT]PNGL-OH; C-terminus assumed)
[5]; [11]
  IC50: 164 µM
[4]
  Selectivity Index: 13,633
[4]; [12]
  IC50: 0.06 µM

## CC[C@H](C)[C@H](NC(=O)[C@H](C)NC(=O)[C@@H](NC(=O)[C@H](CO)NC(=O)[C@H](Cc1c[nH]cn1)NC(=O)[C@H](CC(C)C)NC(=O)[C@@H]1CCCN1C(C)=O)[C@@H](C)OP(=O)(O)O)C(=O)O [SEQ ID NO: 4, Ac-PLHS[pT]Al] (Ac-PLHS[pT]AI-OH; C-terminus assumed)
[5]; [11]
  IC50: 270 µM
[4]
  Selectivity Index: 21,133
[4]; [12]
  IC50: 0.064 µM

## CC[C@H](C)[C@H](NC(=O)[C@H](C)NC(=O)[C@@H](NC(=O)[C@H](CO)NC(=O)[C@H](Cc1c[nH]cn1)NC(=O)[C@H](CC(C)C)NC(C)=O)[C@@H](C)OP(=O)(O)O)C(=O)O [SEQ ID NO: 5, Ac-LHS[pT]Al] (Ac-LHS[pT]AI-OH; C-terminus assumed)
[5]
  PLK3 PBD binding, in words: lost all detectable affinity
[5]; [10]
  IC50: > 600 µM
[4]
  IC50: 1.57 µM
  Selectivity Index: >1900

## CC(C)C[C@H](NC(=O)[C@@H]1CCCN1C(=O)CN)C(=O)N[C@@H](C)C(=O)N[C@H](C(=O)N[C@@H](CO)C(=O)N[C@H](C(=O)N1CCC[C@H]1C(=O)N[C@@H](CCCCN)C(=O)N[C@@H](CC(N)=O)C(=O)NCC(=O)O)[C@@H](C)OP(=O)(O)O)[C@@H](C)O [SEQ ID NO: 7, GPLATS[pT]PKNG, reference compound] (H-GPLATS[pT]PKNG-OH; N-terminus and C-terminus assumed)
[5]; [10]
  IC50: 2.2 µM
[4]
  IC50: 0.0057 µM
  Selectivity Index: ~2000 and 1928

## CC(C)C[C@H](NC(=O)CNC(=O)[C@H](CC(N)=O)NC(=O)[C@@H]1CCCN1C(=O)[C@@H](NC(=O)[C@H](CO)NC(=O)[C@@H](NC(=O)[C@H](C)NC(=O)[C@H](CC(C)C)NC(=O)[C@@H]1CCCN1C(=O)CN)[C@@H](C)O)[C@@H](C)OP(=O)(O)O)C(=O)O [SEQ ID NO: 8, GPLATS[pT]PNGL] (H-GPLATS[pT]PNGL-OH; N-terminus and C-terminus assumed)
[5]
  fold reduction of PLK3 PBD binding relative to parent compound: 3 fold
[5]; [10]
  IC50: 6.3 µM
[4]
  IC50: 0.011 µM
  fold reduction of PLK1 PBD binding relative to parent compound: 2 fold
  Selectivity Index: 2864

## CC(=O)N1CCC[C@H]1C(=O)N[C@@H](CC(C)C)C(=O)N[C@@H](Cc1c[nH]cn1)C(=O)N[C@@H](CO)C(=O)N[C@H](C(=O)N1CCC[C@H]1C(=O)N[C@@H](CCCCN)C(=O)N[C@@H](CC(N)=O)C(=O)NCC(=O)O)[C@@H](C)OP(=O)(O)O [SEQ ID NO: 9, Ac-PLHS[pT]PKNG] (Ac-PLHS[pT]PKNG-OH; C-terminus assumed)
[5]; [11]
  IC50: 134 µM
[4]
  Selectivity Index: 20,906
[4]; [12]
  IC50: 0.032 µM

## Ac-PLHS[pT]A (SEQ ID NO: 6)
[6]
  Selectivity Index: > 6500
[2]
  IC50: 0.46 µM
[3]
  fold reduction in binding against SEQ ID NO: 4: 7 fold

## Ac-PLHS[pT]AI (SEQ ID NO: 4)
[6]
  Selectivity Index: 21100

## Ac-PLHS[pT]PKNG (SEQ ID NO: 9)
[6]
  Selectivity Index: 20900
[3]
  fold weakened affinity against SEQ ID NO: 8: 2 fold

## Ac-PLHS[pT]PNGL (SEQ ID NO: 3)
[6]
  Selectivity Index: 13600
[3]
  fold increase against SEQ ID NO: 1: 3 fold

## Compound No. 12, 4-hexyl S[pT]PNGL (SEQ ID NO: 11) (peptide)
[1]
  Selectivity Index: > 2830
[2]
  IC50: 1 µM

## Compound No. 13, 4-octyl S[pT]PNGL (SEQ ID NO: 11) (peptide)
[1]
  Selectivity Index: 2070
[2]
  IC50: 0.36 µM

## Compound No. 14, 4-octyl S[pT]A (SEQ ID NO: 12) (peptide)
[1]
  Selectivity Index: 66
[2]
  IC50: 15.2 µM
[3]
  fold weaker affinity against Compound No. 15: 40 fold

## GPLATS[pT]PKNG (SEQ ID NO: 7)
[6]
  Selectivity Index: 1930

B1: Compound #3 FLIP (R1 = OCH2CH3) (peptide)
peptide: {4‑ethoxybenzoyl}-S[pT]PNGL
modifications: also: further groups not given here
notes: see m14; also called Compound No. 3
[7]
  IC50: 15.9 µM

B2: Compound #8, methylamino FLIP (R1 = NCH3) (peptide)
peptide: {4‑(methylamino)benzoyl}-S[pT]PNGL
modifications: also: further groups not given here
notes: see m14; also called Compound No. 8
[7]
  IC50: 11.2 µM

B3: Compound No. 15, 4-octylbenzamide N-capped S[pT]AI (SEQ ID NO: 13) (peptide)
peptide: {Benzoyl(4-octyl)}-S[pT]AI
[8]
  MTT IC50 [µM] A549: 79.5 µM
  MTT IC50 [µM] HeLa: 128 µM
  MTT IC50 [µM] PC-3: 55.7 µM
[9]
  IC50: 153 µM
[1]
  Selectivity Index: 1860
[2]
  IC50: 0.41 µM

B4: Compound #7, thiomethyl FLIP (R1 = SCH3) (peptide)
peptide: {4‑(methylthio)benzoyl}-S[pT]PNGL
modifications: also: further groups not given here
notes: see m14; also called Compound No. 7
[7]
  IC50: 3 µM

B5: Ac-LHS[pT]AI (SEQ ID NO: 5) (peptide)
peptide: Ac-LHS[pT]AI
[6]
  Selectivity Index: > 1900
[3]
  fold loss of binding against SEQ ID NO: 4: 24 fold

B6: Compound #6, 4-phenethoxy FLIP (R1 = OCH2CH2C6H5) (peptide)
peptide: {4‑phenethoxybenzoyl}-S[pT]PNGL
modifications: also: further groups not given here
notes: see m14; also called Compound No. 6
[7]
  IC50: 4.5 µM

B7: Compound #2, methoxy derivative FLIP (R1 = OCH3) (peptide)
peptide: {4‑methoxybenzoyl}-S[pT]PNGL
modifications: also: further groups not given here
notes: see m14; also called Compound No. 2
[7]
  IC50: 21.9 µM
